In patent US7514534:

T1: MMP-26 (human)
T1 sequence: ASDF

B1: D06 (antibody, human IgG4, V domains shown)
VH: EVQLLESGGGLVQPGGSLRLSCAASGFTFSGYIMEWVRQAPGKGLEWVSVIVSSGGFTMYADSVKGRFTISRDNSKNTLYLQMNSLRAEDTAVYYCARVGDSKGGYYLDYWGQGTLVTVSS
VL: DIQMTQSPSSLSASVGDRVTITCRTSQIINTYLNWYQQKPGKAPKLLIYAASTLQGGVPSRFSGSGSGTDFTLTIKSLQPDDFATYYCQQSYTSPRTFGQGTKVEIKR
B2: D07 (antibody, human IgG4, V domains shown)
VH: EVQLLESGGGLVQPGGSLRLSCAASGFTFSEYNMFWVRQAPGKGLEWVSYIYSSGGSTDYADSVKGRFTISRDNSKNTLYLQMNSLRAEDTAVYYCARVGIAARPFDPWGQGTLVTVSS
VL: QSELTQPASVSGSPGQSITISCTGTNSDIGGYNYVSWYQQHPGKVPKLLIFEVNNRPSGVSSRFSGSKSGDTASLTISGLQPEDEAVYYCGSFTVSVTYVFGTGTKVTVLG
B3: D04 (antibody, human IgG4, V domains shown)
VH: EVQLLESGGGLVQPGGSLRLSCAASGFTFSDYQMMWVRQAPGKGLEWVSRISPSGGMTRYADSVKGRFTISRDNSKNTLYLPMNSLRAEDTAVYYCARSGPYYFDYWGQGTLVTVSS
VL: DIQMTQSPSSLSASVGDRVAITCRASQSIDTYLNWYQQKPGKAPKLLIYAASKLEDGVPSRFSGSGTGTDFTLTIRSLQPEDFASYFCQQSYSSPGITFGPGTKVEIKR
B4: D02 (antibody, human IgG4, V domains shown)
VH: EVQLLESGGGLVQPGGSLRLSCAASGFTFSWYDMAWVRQAPGKGLEWVSRIVPSGGHTSYADSVKGRFTISRDNFKNTLYLQMNSLRAEDTAVYYCARRASRPEFFDYWGQGALVTVSS
VL: DIQMTQSPSFLSASVGDRVTITCRASQGISTYLAWYQQKPGKAPKVLIYTASTLQSGVPSRFSGSGSGTEFTLTISSLQPEDFATYYCQQSYITPPEVTFGPGTKVDIKR
B5: D08 (antibody, human IgG4, V domains shown)
VH: EVQLLESGGGLVQPGGSLRLSCAASGFTFSFYAMWWVRQAPGKGLEWVSRIYSSGGKTWYADSVKGRFTISRDNSKNTLYLQMNSLRAEDTAVYYCARVGMSTYAFDIWGQGTMVTVSS
VL: DIQMTQSPSSLSASVGDRVTITCRASQSISDYLNWYQQKPGKAPDLLIYAASSLQSGVPSRFSGSGSGTDFTLTVSSLQPEDFATYFCQQSYSIPLTFGGGTKVEITR

These binders were tested against T1, MMP-26 (human) (assay: cell-based or functional assay).

Going from B1 to B2, the % Inhibition of JEG-3 cell invasion, 5 µg/ml (first test) rises from 0% to 21%.

First: B3
Second: B4
The % Inhibition of JEG-3 cell invasion, 5 µg/ml (first test) of the first is higher: 38% for the first, 36% for the second.

Binder B5 has a % Inhibition of JEG-3 cell invasion, 5 µg/ml (first test) of 36%.

Going from B1 to B2, the % Inhibition of JEG-3 cell invasion, 25 µg/ml (first test) rises from 35% to 36%.

First: B3
Second: B4
The % Inhibition of JEG-3 cell invasion, 25 µg/ml (first test) of the first is higher: 34% for the first, 25% for the second.

B5 gave a % Inhibition of JEG-3 cell invasion, 25 µg/ml (first test) of 35%.

First: B3
Second: B5
The % Inhibition of JEG-3 cell invasion, 1 µg/ml (further test) of the first is lower: 47% for the first, 56% for the second.

Compared with B3, B5 is higher in % Inhibition of JEG-3 cell invasion, 5 µg/ml (further test): 34% for the first, 50% for the second.

Compared with B3, B5 is higher in % Inhibition of JEG-3 cell invasion, 25 µg/ml (further test): 45% for the first, 76% for the second.

Compared with B3, B5 is higher in % Inhibition of JEG-3 cell invasion, 50 µg/ml (further test): 52% for the first, 53% for the second.
